The source of these data is paper PMC5268383, “Inhibition of STAT3 by Anticancer Drug Bendamustine” (PLoS ONE, 2017).

Test [1] concerns the target T1, recombinant human STAT3 SH2 domain (Homo sapiens, UniProt P40763).
T1 construct: Full-length cDNAs were obtained from a human cDNA library by PCR; Avi-tag (biotinylated in BirA-BL21) (N); made in house; host or cells: Escherichia coli BirA-BL21
In words: AlphaScreen SH2 binding assay, STAT3. Here is the method:
AlphaScreen assays were performed in a final reaction volume of 25 μL of the assay buffer, containing 10 mM HEPES-NaOH (pH 7.4), 50 mM NaCl, 1 mM EDTA (pH 8.0), 0.1% NP-40, and 10 ng/mL BSA in a 96-well microtiter plate at 25°C. The labeled Phospho-Tyr (pTyr) peptide probe was 5-carboxyfluorescein (FITC)-GpYLPQTV for STAT3, FITC-GpYDKPHVL for STAT1, and FITC-PSpYVNVQN for Grb2. A DMSO solution of BENDA was incubated with 50 nM of each SH2-containing protein for 15 min, 50 nM of the corresponding FITC-pTyr peptide was added, and the mixture was incubated for 90 min. Streptavidin-coated donor beads and anti-FITC acceptor beads were added and incubated for 90 min before the signals were measured with an Envision Xcite plate reader (PerkinElmer Life Sciences, Waltham, MA, USA).

The target of test [2] is T2, cellular STAT3 in MDA-MB-468 cells (Homo sapiens, UniProt P40763).
T2 construct: endogenous in cells; host or cells: MDA-MB-468
T2 sequence (P40763 2-770 limits assumed): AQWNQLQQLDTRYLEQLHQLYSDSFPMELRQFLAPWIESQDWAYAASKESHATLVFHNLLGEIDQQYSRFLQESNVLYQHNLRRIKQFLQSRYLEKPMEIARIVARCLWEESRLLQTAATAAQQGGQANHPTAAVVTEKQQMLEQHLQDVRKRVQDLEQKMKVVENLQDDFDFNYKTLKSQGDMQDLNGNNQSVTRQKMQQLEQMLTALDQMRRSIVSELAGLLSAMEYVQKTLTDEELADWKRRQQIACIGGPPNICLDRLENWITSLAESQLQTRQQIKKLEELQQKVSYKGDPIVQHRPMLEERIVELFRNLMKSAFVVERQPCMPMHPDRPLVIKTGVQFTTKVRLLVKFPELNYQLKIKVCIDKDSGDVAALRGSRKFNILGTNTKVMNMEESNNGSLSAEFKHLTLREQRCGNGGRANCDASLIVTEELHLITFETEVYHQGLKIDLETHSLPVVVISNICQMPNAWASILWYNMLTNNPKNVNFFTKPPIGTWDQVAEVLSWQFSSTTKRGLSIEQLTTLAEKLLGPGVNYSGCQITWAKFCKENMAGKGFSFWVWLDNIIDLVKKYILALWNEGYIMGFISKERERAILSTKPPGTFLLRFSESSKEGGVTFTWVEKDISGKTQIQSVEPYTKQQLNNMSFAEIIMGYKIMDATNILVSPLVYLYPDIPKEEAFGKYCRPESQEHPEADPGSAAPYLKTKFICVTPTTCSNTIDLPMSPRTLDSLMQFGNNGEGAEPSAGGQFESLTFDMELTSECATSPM
Kind of test: Pull-down assay using Bio-BENDA, anti-STAT3 immunoprecipitation. Particulars: 50 μM Bio-BENDA, 4 h. In kind it is cell-based. The method, then: MDA-MB-468 cells were treated with biotinylated BENDA (Bio-BENDA) in the presence or absence of an excess amount of free drugs for 4 h and then lysed in PhosphoSafe™ Extraction Reagent (Merck, Darmstadt, Germany). Lysate (200 μL) was precleared with a mixture of Protein G Plus/Protein A Agarose Suspension (EMD Millipore, Billerica, MA, USA) for 1 h at 4°C and protein A and G agarose were removed by centrifugation at 13,000 rpm for 10 min. The lysate (200 μL) was immunoprecipitated with STAT3 antibody (1 μL) overnight at 4°C on a shaker and the immunocomplex was captured by the addition of a Protein G Plus/Protein A Agarose Suspension (30 μL) slurry for 1 h at 4°C. Samples were washed five times with lysis buffer and then boiled four times in SDS-PAGE sample buffer and run on an SDS-PAGE gel. The protein was transferred to a nitrocellulose membrane. The membranes were blocked in 5% skim milk in TBS/0.1% Tween 20. They were then incubated with streptavidin-HRP diluted at 1:2000 in 1.5% skim milk in TBS (pH7.4)/0.1% Tween 20 overnight at 4°C. Immunoblots were developed by using a chemiluminescent substrate.

Test [3] deals with T3, cellular STAT1 in MDA-MB-468 cells (Homo sapiens, UniProt P42224).
T3 construct: endogenous in cells; host or cells: MDA-MB-468
T3 sequence (P42224 whole entry): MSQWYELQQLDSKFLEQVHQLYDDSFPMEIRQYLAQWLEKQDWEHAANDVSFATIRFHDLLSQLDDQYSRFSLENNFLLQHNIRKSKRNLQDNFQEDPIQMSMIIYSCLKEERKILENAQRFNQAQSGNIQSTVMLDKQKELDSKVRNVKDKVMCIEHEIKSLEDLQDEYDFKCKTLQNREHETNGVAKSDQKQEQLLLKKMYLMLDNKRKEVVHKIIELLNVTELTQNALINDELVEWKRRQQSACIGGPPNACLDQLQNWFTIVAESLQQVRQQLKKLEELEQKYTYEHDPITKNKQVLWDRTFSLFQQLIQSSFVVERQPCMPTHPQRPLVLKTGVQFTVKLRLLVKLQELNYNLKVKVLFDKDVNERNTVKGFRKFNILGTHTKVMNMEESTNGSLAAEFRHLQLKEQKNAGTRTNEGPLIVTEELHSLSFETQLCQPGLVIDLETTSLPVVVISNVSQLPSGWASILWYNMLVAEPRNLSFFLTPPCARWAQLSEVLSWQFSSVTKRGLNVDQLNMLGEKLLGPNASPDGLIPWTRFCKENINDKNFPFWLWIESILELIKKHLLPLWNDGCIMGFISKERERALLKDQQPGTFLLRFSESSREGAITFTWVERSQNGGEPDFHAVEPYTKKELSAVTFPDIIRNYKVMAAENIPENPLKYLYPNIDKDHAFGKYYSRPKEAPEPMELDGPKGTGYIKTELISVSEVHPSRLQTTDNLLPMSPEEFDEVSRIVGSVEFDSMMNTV
Kind of test: Pull-down assay using Bio-BENDA, anti-STAT1 immunoprecipitation. It is filed as cell-based. Conditions: 50 μM Bio-BENDA, 4 h.

The test system of test [4] is MDA-MB-468 cells and MDA-MB-453 cells. More on the design: method as in PMID 26010889. Conditions: cited from earlier work.
The target of test [5] is T4, mutant recombinant human STAT3, Cys468 to alanine (human, UniProt P40763 1-770, Cys468 to alanine, biotin (Avi-tag; expressed in BirA-BL21 cells induced with 50 μM biotin)).
T4 construct: human STAT3, full-length cDNA, single point mutation by inverse PCR, in modified pET-28a(+); Expression and purification are described for the wild type; also called Cys468 mutant; mutant STAT3 His-Avi-pET28a (+); source: E. coli BirA-BL21, purified (Ni Sepharose, dialysis); not shown: Avi-tag, N-terminal, kept
T4 sequence (P40763 other isoform, or with tags, fused parts or gaps Cys468 to alanine | Cys468 to alanine | mutant): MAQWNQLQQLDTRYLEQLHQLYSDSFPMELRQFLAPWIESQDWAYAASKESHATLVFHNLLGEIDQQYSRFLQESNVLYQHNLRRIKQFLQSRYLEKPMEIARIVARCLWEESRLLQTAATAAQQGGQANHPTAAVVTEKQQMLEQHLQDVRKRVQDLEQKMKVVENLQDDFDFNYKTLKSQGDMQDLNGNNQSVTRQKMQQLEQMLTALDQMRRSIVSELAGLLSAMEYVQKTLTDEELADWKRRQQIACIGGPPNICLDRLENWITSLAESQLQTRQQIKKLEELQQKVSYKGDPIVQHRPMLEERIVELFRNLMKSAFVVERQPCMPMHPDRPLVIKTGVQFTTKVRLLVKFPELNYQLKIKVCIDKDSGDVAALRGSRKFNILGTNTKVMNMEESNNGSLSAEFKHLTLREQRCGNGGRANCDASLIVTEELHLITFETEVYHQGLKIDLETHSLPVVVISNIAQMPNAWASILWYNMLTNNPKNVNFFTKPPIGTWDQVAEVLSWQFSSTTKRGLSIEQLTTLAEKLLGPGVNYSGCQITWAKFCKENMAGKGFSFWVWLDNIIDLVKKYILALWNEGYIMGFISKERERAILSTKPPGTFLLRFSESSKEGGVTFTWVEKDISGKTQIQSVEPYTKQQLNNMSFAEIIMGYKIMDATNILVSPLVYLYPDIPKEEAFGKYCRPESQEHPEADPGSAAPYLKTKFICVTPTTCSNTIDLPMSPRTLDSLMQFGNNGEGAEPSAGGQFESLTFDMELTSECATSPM
In words: AlphaScreen or HTRF; 375 nM mutant recombinant STAT3 incubated with 100 μM BENDA in DMSO for 30 min, then the AlphaScreen SH2 binding assay with the phosphotyrosine peptide. Conditions: both partners purified.

Test [6] concerns the target T5, mutant recombinant human STAT3, Cys542 to alanine (human, UniProt P40763 1-770, Cys542 to alanine, biotin (Avi-tag; expressed in BirA-BL21 cells induced with 50 μM biotin)).
T5 construct: human STAT3, full-length cDNA, single point mutation by inverse PCR, in modified pET-28a(+); Expression and purification are described for the wild type; also called Cys542 mutant; mutant STAT3 His-Avi-pET28a (+); source: E. coli BirA-BL21, purified (Ni Sepharose, dialysis); not shown: Avi-tag, N-terminal, kept
The description is as above. Particulars: both partners purified.

The target in test [7] is T6, mutant recombinant human STAT3, C550A (human, UniProt P40763 1-770, C550A, biotin (Avi-tag; expressed in BirA-BL21 cells induced with 50 μM biotin)).
T6 construct: human STAT3, full-length cDNA, single point mutation by inverse PCR, in modified pET-28a(+); Expression and purification are described for the wild type; also called Cys550 mutant; mutant STAT3 His-Avi-pET28a (+); source: E. coli BirA-BL21, purified (Ni Sepharose, dialysis); not shown: Avi-tag, N-terminal, kept
T6 sequence (P40763 whole entry C550A): as the sequence (P40763 other isoform, or with tags, fused parts or gaps Cys468 to alanine | Cys468 to alanine | mutant) above, with A468C, C550A counted along it
The description is as above. Particulars: both partners purified.

For test [8], the target named is T7, mutant recombinant human STAT3, Cys687 to alanine (human, UniProt P40763 1-770, Cys687 to alanine, biotin (Avi-tag; expressed in BirA-BL21 cells induced with 50 μM biotin)).
T7 construct: human STAT3, full-length cDNA, single point mutation by inverse PCR, in modified pET-28a(+); Expression and purification are described for the wild type; also called Cys687 mutant; mutant STAT3 His-Avi-pET28a (+); source: E. coli BirA-BL21, purified (Ni Sepharose, dialysis); not shown: Avi-tag, N-terminal, kept
T7 sequence (P40763 other isoform, or with tags, fused parts or gaps Cys687 to alanine | Cys687 to alanine | mutant): as the sequence (P40763 other isoform, or with tags, fused parts or gaps Cys468 to alanine | Cys468 to alanine | mutant) above, with A468C, C687A counted along it
Described as above. Conditions: both partners purified.

The target of test [9] is T8, mutant recombinant human STAT3, C712A (human, UniProt P40763 1-770, C712A, biotin (Avi-tag; expressed in BirA-BL21 cells induced with 50 μM biotin)).
T8 construct: human STAT3, full-length cDNA, single point mutation by inverse PCR, in modified pET-28a(+); Expression and purification are described for the wild type; also called Cys712 mutant; mutant STAT3 His-Avi-pET28a (+); source: E. coli BirA-BL21, purified (Ni Sepharose, dialysis); not shown: Avi-tag, N-terminal, kept
T8 sequence (P40763 whole entry C712A): as the sequence (P40763 other isoform, or with tags, fused parts or gaps Cys468 to alanine | Cys468 to alanine | mutant) above, with A468C, C712A counted along it
The test is described as above. Conditions: both partners purified.

Test [10] deals with T9, recombinant human STAT3 (signal transducer and activator of transcription 3) (human, UniProt P40763 1-770, biotin (Avi-tag; expressed in BirA-BL21 cells induced with 50 μM biotin)).
T9 construct: human STAT3, full-length cDNA from a human cDNA library, cloned into modified pET-28a(+); also called rhSTAT3; wild-type rhSTAT3; source: E. coli BirA-BL21, purified (Ni Sepharose, dialysis); not shown: Avi-tag, N-terminal, kept
T9 sequence (P40763 whole entry): as the sequence (P40763 other isoform, or with tags, fused parts or gaps Cys468 to alanine | Cys468 to alanine | mutant) above, with A468C counted along it
Kind of test: AlphaScreen or HTRF; 50 nM SH2-containing protein pre-incubated 15 min with BENDA in DMSO, then 50 nM FITC-pTyr peptide 90 min; streptavidin-coated donor beads and anti-FITC acceptor beads 90 min; 10 mM HEPES-NaOH pH 7.4, 50 mM NaCl, 1 mM EDTA, 0.1% NP-40, 10 ng/mL BSA, 25°C. Particulars: both partners purified.

Where no end group is shown, it is not given here. [ ]: non-standard residue; d: D form. pY = N[C@@H](Cc1ccc(OP(=O)(O)O)cc1)C(=O)O

T1 sequence (P40763 whole entry, the tested form may be a part): as the sequence (P40763 other isoform, or with tags, fused parts or gaps Cys468 to alanine | Cys468 to alanine | mutant) above, with A468C counted along it
T5 sequence (P40763 other isoform, or with tags, fused parts or gaps Cys542 to alanine | Cys542 to alanine | mutant): as the sequence (P40763 other isoform, or with tags, fused parts or gaps Cys468 to alanine | Cys468 to alanine | mutant) above, with A468C, C542A counted along it

Consider `CCOC(=O)CCCc1nc2cc(N(CCCl)CCCl)ccc2n1C` [BM1EE, BENDA ethyl ester], for which the IC50 in [1] worked out at 6.1 µM.
For the molecule `Cn1c(CCCC(=O)OCCOCCOCCOCCNC(=O)CCC[C@@H]2SC[C@@H]3NC(=O)N[C@@H]32)nc2cc(N(CCCl)CCCl)ccc21` [Bio-BENDA, 13-Oxo-16-[(3aS,4S,6aR)-2-oxohexahydro-1H-thieno[3,4-d]imidazol-4-yl]-3,6,9-trioxa-12-azahexadecyl 4-{5-[bis(2-chloroethyl)amino]-1-methyl-1H-benzo[d]imidazol-2-yl}butanoate], the “Binding to cellular STAT3 (band by streptavidin-HRP after anti-STAT3 IP)” value in test [2] is “the STAT3 band was observed”. Further, the “Binding to cellular STAT1 (band by streptavidin-HRP after anti-STAT1 IP)” value in [3] is “no band”.
On to `C=C1C(=O)[C@]23C[C@H]1CC[C@H]2[C@@]12CO[C@]3(O)[C@@H](O)[C@@H]1C(C)(C)C=CC2=O` [Eriocalyxin B], for which, in test [4], the “Growth inhibition of MDA-MB-468 versus MDA-MB-453 cells” value is reported as “inhibit the growth of MDA-MB-468 cells more than that of the MDA-MB-453 cells”.
On to `O=[N+]([O-])c1ccc2c(c1)S(=O)(=O)C=C2` [Stattic], for which the “Growth inhibition of MDA-MB-468 versus MDA-MB-453 cells” value in [4] was “inhibit the growth of MDA-MB-468 cells more than that of the MDA-MB-453 cells”.

B1: 5-carboxyfluorescein (FITC)-GpYLPQTV, labeled Phospho-Tyr peptide probe for STAT3 (peptide)
peptide: G[pY]LPQTV
modifications: not fully specified (N-terminus)
notes: the leading G is not the natural residue there; also called phosphotyrosine peptide; pTyr peptide; source: synthetic peptide (NippiBiomatrix Laboratory)
Consider B1, for which the binding result in test [5], in test [6], in test [7], in test [8], in [9] and in [10] was “binds” each time.
